Patent publication US20230090156A1 (NANYANG TECHNOLOGICAL UNIVERSITY, published 2023)

T1: human cANGPTL4 (C-terminal fragment of Angiopoietin-like 4 protein) (human, UniProt Q9BY76 186-406, limits assumed)
T1 construct: domain: C-terminal fragment (cANGPTL4); Purified cANGPTL4 was immobilised by amine coupling on the CM5 chip for SPR and on carboxylated microwell plates for ELISA; also called purified cANGPTL4; human cANGPTL4 antigen
T1 sequence (looked up): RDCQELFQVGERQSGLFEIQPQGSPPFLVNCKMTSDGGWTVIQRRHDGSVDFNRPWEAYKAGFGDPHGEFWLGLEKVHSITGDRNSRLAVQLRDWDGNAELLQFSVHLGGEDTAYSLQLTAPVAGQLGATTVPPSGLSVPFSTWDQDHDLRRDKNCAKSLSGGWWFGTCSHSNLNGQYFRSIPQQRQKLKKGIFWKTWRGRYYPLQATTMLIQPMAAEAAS

B1: murine monoclonal antibody mAb11F6C4 (antibody, V domains shown)
VH: QITLKESGPGILKPSQTLSLTCSFSGFSLSTSGMGVGWIRQPSGKGLEWLAHIWWDDDKYYNPSLKSQLTISKDTSRNQVFLKITSVDTADTATYYCARKDYGSSYDYWGQGTTLTVSS
VL: DIVLTQSPASLAVSLGQRATISCKASQSVDYDGDSYLNWFQQKPGQPPKLLIYTASNLESGIPARFSGSGSGTDFTLNIHPVEEEDAATYYCQQSNEDPWTFGGGTTLEIK
notes: Murine monoclonal antibody, the parent of the humanized antibodies; also called Control 11F6C4; original mouse-derived mAb
B2: Antuzumab 1 (antibody, V domains shown)
VH: QVTLKESGPTLVKPTQTLTLTCTFSGFSLSTSGMGVGWIRQPPGKALEWLAHIWWDDDKYYNPSLKSRLTISKDTSKNQVVLTMTNMDPVDTATYYCARKDYGSSYDYWGQGTTVTVSS
VL: DIVMTQSPLSLPVTPGEPASISCKASQSVDYDGDSYLNWYLQKPGQSPRLLIYTASNLESGVPDRFSGSGSGTDFTLKISRVEAEDVGVYYCFQSNEDPWTFGQGTKLEIK
notes: Humanized monoclonal antibody made in CHO cells; also called ANG49; ANGH3 + ANGK3
B3: Antuzumab 2 (antibody, V domains shown)
VH: QITLKESGPTLVKPTQTLTLTCTFSGFSLSTSGMGVGWIRQPPGKALEWLAHIWWDDDKYYNPSLKSRLTITKDTSKNQVDLTMTFMDPWDTATYYCAHKDYGSSYDYWGQGTLVTVSS
VL: DIQMTQSPSSLSASVGDRVTITCKASQSVDYDGDSYLNWYQQKPGKAPNLLIYTASNLESGVPSRFSGSGSGTDFTLTISSLQPEDFATYYCQQSNEDPWTFGEGTKVEIK
notes: Humanized monoclonal antibody made in CHO cells; also called ANG50; ANGH4 + ANGK4
B4: Antuzumab 3 (antibody, V domains shown)
VH: QITLKESGPTLVKPTQTLTLTCTFSGFSLSTSGMGVGWIRQPPGKALEWLAHIWWDDDKYYNPSLKSRLTITKDTSKNQVVLTMTNMDPVDTATYYCARKDYGSSYDYWGQGTLVTVSS
VL: DIVMTQSPDSLAVSLGERATINCKASQSVDYDGDSYLNWYQQKPGQPPKLLIYTASNLESGVPDRFSGSGSGTDFTLTISSLQAEDVAVYYCQQSNEDPWTFGQGTKVEIK
notes: Humanized monoclonal antibody made in CHO cells; also called ANG27; ANGH1 + ANGK1

These binders were tested against T1, human cANGPTL4 (C-terminal fragment of …) (assay: SPR (BIACORE 3000), cANGPTL4 amine-coupled to CM5 chip, antibody as analyte).
Experimental: Surface Plasmon Resonance (SPR): Sensor CM5 chips and amine coupling kits were from GE Healthcare. Purified cANGPTL4 was immobilized onto a CM5-carboxylated dextran sensor chip by amine coupling using the Surface Prep Module of BIACORE 3000 as recommended by the manufacturer (BIAcore). Antuzumab (0.16, 0.32, 0.63, 1.25, 2.50, and 5.0 μm) diluted and buffered with 50 mm Tris, pH 8.0, was introduced into the cANGPTL4-conjugated CM5 chip at a flow rate of 5 μI/min for 10 min with running buffer (50 mm Tris, pH 8.0, 100 mm NaCl). After incubation for 45 s, the chamber was washed with the same buffer, and the bound molecules were subsequently eluted using 10 mm glycine, pH 6.0. The CM5 chip was reused after washing with running buffer for 10 min at 20 μI/min. Each sensorgram was corrected by subtracting a sensorgram obtained from a reference flow cell with no immobilized protein. Global fitting of the SPR data was used to determine the association (Kₐₛₛ) and dissociation (Kdiss) with Scrubber 2 software. Values are given as the mean±S.D. of three independent preparations of Antuzumab.

Compared with B1, B2 is higher in “Fold increase (affinity against control 11F6C4)” value: 1 fold for the first, 7.86 fold for the second.

First: B3
Second: B4
The “Fold increase (affinity against control 11F6C4)” value of the first is higher: 5.37 fold for the first, 1.85 fold for the second.

Compared with B1, B2 is 7.9-fold lower in Kd: 8.28 nM for the first, 1.05 nM for the second. The second binds more tightly here.

Going from B3 to B4, the Kd rises from 1.54 nM to 4.47 nM (2.9-fold). The first binds more tightly here.

B1 and B2 are within 1.5-fold of each other in koff: 0.000905 s⁻¹ for the first, 0.000693 s⁻¹ for the second.

B3 and B4 are within 1.5-fold of each other in koff: 0.000764 s⁻¹ for the first, 0.000948 s⁻¹ for the second.

First: B1
Second: B2
The kon of the first is 6-fold lower: 109000 M⁻¹ s⁻¹ for the first, 658000 M⁻¹ s⁻¹ for the second.

Compared with B3, B4 is 2.3-fold lower in kon: 495000 M⁻¹ s⁻¹ for the first, 212000 M⁻¹ s⁻¹ for the second.
